Patent US20250152742A1, “COMPOSITIONS AND METHODS FOR NEUROLOGICAL DISEASES” (Trames Bio, Inc., priority 2022, published 2025)
Positions count from the first letter of the chain named. Numbers in names are those of the source.

Test system: engineered chimeric receptor SEQ ID NO: 33 and its mutants (human α7-nAChR ligand binding domain / human GlyRα1 ion pore domain) in Lenti-X 293T cells
Experiment: YFP fluorescence quenching anion reporter plate reader assay (percent quench, EC50)
Format: cell-based
Conditions: for YFP fluorescence quenching using CNL001 (percent quench): receptor named in row; for YFP fluorescence quenching using Varenicline, 3 nM var: ligand Varenicline 3 nM; for YFP fluorescence quenching using Varenicline, 30 nM var: ligand Varenicline 30 nM; for YFP fluorescence quenching using Varenicline, 300 nM var: ligand Varenicline 300 nM; for YFP fluorescence quenching using Varenicline, 500 nM var: ligand Varenicline 500 nM; for YFP fluorescence quenching using Varenicline, 1 uM var: ligand Varenicline 1 uM
How it was run: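 Lenti-X 293T cells co-expressing an anion-quenchable YFP were transiently transfected with receptor DNA, then ligand was added in NaI-substituted buffer (pH 7.2) after 30 min at 37 °C. Fluorescence was read about 2 min; percent quench = mean of last 10 s over 15 s pre-ligand baseline.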

[1] = 1 nM CNL001, first column so headed
[2] = 1 nM CNL001, second column so headed
[3] = 3 nM brd (TC-5619/Bradanicline)
[4] = 10 nM CNL001, first column so headed
[5] = 10 nM CNL001, second column so headed
[6] = 30 nM brd (TC-5619/Bradanicline)
[7] = 50 nM CNL001, first column so headed
[8] = 50 nM CNL001, second column so headed
[9] = 100 nM CNL001, first column so headed
[10] = 100 nM CNL001, second column so headed
[11] = 300 nM brd (TC-5619/Bradanicline)
[12] = 1 uM CNL001, first column so headed
[13] = 1 uM CNL001, second column so headed
[14] = 1 nM brd (TC-5619/Bradanicline)
[15] = 10 nM brd (TC-5619/Bradanicline)
[16] = 100 nM brd (TC-5619/Bradanicline)

B1: CODA965: engineered receptor: Y140C in SEQ ID NO: 33 (protein)
chain: MRCSPGGVWLALAASLLHVSLQGEFQRKLYKELVKNYNPLERPVANDSQPLTVYFSLSLLQIMDVDEKNQVLTTNIWLQMSWTDHYLQWNVSEYPGVKTVRFPDGQIWKPDILLYNSADERFDATFHTNVLVNSSGHCQCLPPGIFKSSCPMDLKNFPMDVQTCKLKFGSWSYGGWSLDLQMQEADISGYIPNGEWDLVGIPGKRSERFYECCKEPYPDVTFTVTMRRRMGYYLIQMYIPSLLIVILSWISFWINMDAAPARVGLGITTVLTMTTQSSGSRASLPKVSYVKAIDIWMAVCLLFVFSALLEYAAVNFVSRQHKELLRFRRKRRHHKSPMLNLFQEDEAGEGRFNFSAYGMGPACLQAKDGISVKGANNSNTTNPPPAPSKSPEEMRKLFIQRAKKIDKISRIGFPMAFLIFNMFYWIIYKIVRREDVHNQ
modifications: synthetic sequence of chimeric LGIC
YFP fluorescence quenching using CNL001 (percent quench) [1]: −12.765%
YFP fluorescence quenching using CNL001 (percent quench) [2]: −12.608%
YFP fluorescence quenching using TC-5619/Bradanicline (percent quench) [3]: −18.49%
YFP fluorescence quenching using CNL001 (percent quench) [4]: 68.134%
YFP fluorescence quenching using CNL001 (percent quench) [5]: 71.394%
YFP fluorescence quenching using TC-6683 (percent quench) (30 nM TC-6683): −8.21%
YFP fluorescence quenching using TC-5619/Bradanicline (percent quench) [6]: 22.66%
YFP fluorescence quenching using CNL001 (percent quench) [7]: 80.298%
YFP fluorescence quenching using CNL001 (percent quench) [8]: 82.159%
YFP fluorescence quenching using ABT-126 (percent quench) (50 nM abt (ABT-126)): −10.75%
YFP fluorescence quenching using CNL001 (percent quench) [9]: 82.404%
YFP fluorescence quenching using CNL001 (percent quench) [10]: 82.14%
YFP fluorescence quenching (percent quench) (100 nM CNL002): 43.24%
YFP fluorescence quenching using ABT-126 (percent quench) (100 nM abt (ABT-126)): −4.11%
YFP fluorescence quenching using AZD-0328 (percent quench) (100 nM azd0328): −16.69%
YFP fluorescence quenching using TC-6683 (percent quench) (300 nM TC-6683): −16.37%
YFP fluorescence quenching using ABT-126 (percent quench) (300 nM abt (ABT-126)): 18.93%
YFP fluorescence quenching using AZD-0328 (percent quench) (300 nM azd0328): 1.3%
YFP fluorescence quenching using TC-5619/Bradanicline (percent quench) [11]: 38.02%
YFP fluorescence quenching using CNL001 (percent quench) [12]: 82.34%
YFP fluorescence quenching using CNL001 (percent quench) [13]: 80.649%
YFP fluorescence quenching (percent quench) (1 uM CNL002): 42.72%
YFP fluorescence quenching using ABT-126 (percent quench) (1 uM abt (ABT-126)): 52.64%
YFP fluorescence quenching using TC-6683 (percent quench) (3 uM TC-6683): −19.48%
YFP fluorescence quenching (percent quench) (10 uM ach (acetylcholine)): −21.71%
YFP fluorescence quenching (percent quench) (30 uM CNL002): 51.43%
YFP fluorescence quenching using TC-6683 (percent quench) (30 uM TC-6683): −24.32%
YFP fluorescence quenching using AZD-0328 (percent quench) (30 uM azd0328): 21.78%
YFP fluorescence quenching using TC-6683 (percent quench) (100 uM TC-6683): −24.99%
YFP fluorescence quenching (percent quench) (100 uM ach (acetylcholine)): 3.49%
YFP fluorescence quenching (percent quench) (1 mM ach (acetylcholine)): 63.34%
YFP fluorescence quenching (percent quench) (3 mM ach (acetylcholine)): 51.92%
YFP fluorescence quenching using Facinicline, 30 nM fac (ligand Facinicline 30 nM): −12.29
YFP fluorescence quenching using Facinicline, 300 nM fac (ligand Facinicline 300 nM): 20.11
YFP fluorescence quenching using Facinicline, 30 uM fac (ligand Facinicline 30 uM): 37.62
YFP fluorescence quenching using TC-6987, 1 uM tc6987 (ligand TC-6987 1 uM): 2.73
YFP fluorescence quenching using TC-6987, 10 uM tc6987 (ligand TC-6987 10 uM): 30.37
YFP fluorescence quenching using TC-6987, 500 uM tc6987 (ligand TC-6987 500 uM): 33.07
YFP fluorescence quenching using Varenicline, 3 nM var (first column): −17.716
YFP fluorescence quenching using Varenicline, 3 nM var (second column): −23.019
YFP fluorescence quenching using Varenicline, 30 nM var (first column): −14.993
YFP fluorescence quenching using Varenicline, 30 nM var (second column): −12.182
YFP fluorescence quenching using Varenicline, 300 nM var (first column): −11.731
YFP fluorescence quenching using Varenicline, 300 nM var (second column): −10.13
YFP fluorescence quenching using Varenicline, 500 nM var (first column): −12.518
YFP fluorescence quenching using Varenicline, 500 nM var (second column): −15.043
YFP fluorescence quenching using Varenicline, 1 uM var (first column): −13.385
YFP fluorescence quenching using Varenicline, 1 uM var (second column): −17.022

B2: CODA1047: engineered receptor: R101F, Y210V in SEQ ID NO: 33 (protein)
chain: B1 chain with R101F, C140Y, Y210V
modifications: synthetic sequence of chimeric LGIC
YFP fluorescence quenching using CNL001 (percent quench) [1]: −7.82%
YFP fluorescence quenching using CNL001 (percent quench) [2]: −8.382%
YFP fluorescence quenching using TC-5619/Bradanicline (percent quench) [14]: −5.548%
YFP fluorescence quenching using TC-5619/Bradanicline (percent quench) [3]: −9.432%
YFP fluorescence quenching using CNL001 (percent quench) [4]: −5.381%
YFP fluorescence quenching using CNL001 (percent quench) [5]: −1.431%
YFP fluorescence quenching using TC-5619/Bradanicline (percent quench) [15]: −3.068%
YFP fluorescence quenching using TC-6683 (percent quench) (30 nM TC-6683): −24.195%
YFP fluorescence quenching using TC-5619/Bradanicline (percent quench) [6]: 2.368%
YFP fluorescence quenching using CNL001 (percent quench) [7]: −0.999%
YFP fluorescence quenching using CNL001 (percent quench) [8]: 3.909%
YFP fluorescence quenching using ABT-126 (percent quench) (50 nM abt (ABT-126)): −14.1%
YFP fluorescence quenching using CNL001 (percent quench) [9]: −0.823%
YFP fluorescence quenching using CNL001 (percent quench) [10]: −5.885%
YFP fluorescence quenching using ABT-126 (percent quench) (100 nM abt (ABT-126)): −11.72%
YFP fluorescence quenching using TC-5619/Bradanicline (percent quench) [16]: 47.529%
YFP fluorescence quenching using TC-6683 (percent quench) (300 nM TC-6683): −24.234%
YFP fluorescence quenching using ABT-126 (percent quench) (300 nM abt (ABT-126)): −12.98%
YFP fluorescence quenching using TC-5619/Bradanicline (percent quench) [11]: 74.413%
YFP fluorescence quenching using CNL001 (percent quench) [12]: 1.638%
YFP fluorescence quenching using CNL001 (percent quench) [13]: 3.483%
YFP fluorescence quenching using ABT-126 (percent quench) (1 uM abt (ABT-126)): −15.09%
YFP fluorescence quenching using TC-6683 (percent quench) (3 uM TC-6683): −21.291%
YFP fluorescence quenching (percent quench) (10 uM ach (acetylcholine)): −4.26%
YFP fluorescence quenching using TC-6683 (percent quench) (30 uM TC-6683): −16.363%
YFP fluorescence quenching using TC-6683 (percent quench) (100 uM TC-6683): −24.9%
YFP fluorescence quenching (percent quench) (100 uM ach (acetylcholine)): −13.05%
YFP fluorescence quenching (percent quench) (300 uM ach (acetylcholine)): −11.73%
YFP fluorescence quenching (percent quench) (500 uM ach (acetylcholine)): −10.75%
YFP fluorescence quenching (percent quench) (1 mM ach (acetylcholine)): −8.81%
YFP fluorescence quenching (percent quench) (3 mM ach (acetylcholine)): −6.77%
YFP fluorescence quenching (percent quench) (10 mM ach (acetylcholine)): −1.03%
YFP fluorescence quenching using Varenicline, 3 nM var (first column): −3.035
YFP fluorescence quenching using Varenicline, 3 nM var (second column): −0.786
YFP fluorescence quenching using Varenicline, 30 nM var (first column): −5.181
YFP fluorescence quenching using Varenicline, 30 nM var (second column): 0.669
YFP fluorescence quenching using Varenicline, 300 nM var (first column): −2.748
YFP fluorescence quenching using Varenicline, 300 nM var (second column): −6.708
YFP fluorescence quenching using Varenicline, 500 nM var (first column): −9.123
YFP fluorescence quenching using Varenicline, 500 nM var (second column): −9.869
YFP fluorescence quenching using Varenicline, 1 uM var (first column): −6.702
YFP fluorescence quenching using Varenicline, 1 uM var (second column): −7.26

B3: CODA1053: engineered receptor: R101M, L131A in SEQ ID NO: 33 (protein)
chain: B1 chain with R101M, L131A, C140Y
modifications: synthetic sequence of chimeric LGIC
YFP fluorescence quenching using CNL001 (percent quench) [1]: −8.554%
YFP fluorescence quenching using CNL001 (percent quench) [2]: −13.711%
YFP fluorescence quenching using TC-5619/Bradanicline (percent quench) [14]: 0.008%
YFP fluorescence quenching using TC-5619/Bradanicline (percent quench) [3]: 43.21%
YFP fluorescence quenching using CNL001 (percent quench) [4]: 39.631%
YFP fluorescence quenching using CNL001 (percent quench) [5]: 66.809%
YFP fluorescence quenching using TC-5619/Bradanicline (percent quench) [15]: 77.672%
YFP fluorescence quenching using TC-5619/Bradanicline (percent quench) [6]: 76.277%
YFP fluorescence quenching using CNL001 (percent quench) [7]: 82.122%
YFP fluorescence quenching using CNL001 (percent quench) [8]: 82.031%
YFP fluorescence quenching using ABT-126 (percent quench) (50 nM abt (ABT-126)): −27.01%
YFP fluorescence quenching using CNL001 (percent quench) [9]: 83.312%
YFP fluorescence quenching using CNL001 (percent quench) [10]: 83.986%
YFP fluorescence quenching using ABT-126 (percent quench) (100 nM abt (ABT-126)): −18.76%
YFP fluorescence quenching using TC-5619/Bradanicline (percent quench) [16]: 76.856%
YFP fluorescence quenching using ABT-126 (percent quench) (300 nM abt (ABT-126)): −17.8%
YFP fluorescence quenching using TC-5619/Bradanicline (percent quench) [11]: 75.32%
YFP fluorescence quenching using CNL001 (percent quench) [12]: 84.363%
YFP fluorescence quenching using CNL001 (percent quench) [13]: 83.877%
YFP fluorescence quenching using ABT-126 (percent quench) (1 uM abt (ABT-126)): −6.55%
YFP fluorescence quenching (percent quench) (10 uM ach (acetylcholine)): −3.98%
YFP fluorescence quenching (percent quench) (100 uM ach (acetylcholine)): −11%
YFP fluorescence quenching (percent quench) (300 uM ach (acetylcholine)): −7.92%
YFP fluorescence quenching (percent quench) (500 uM ach (acetylcholine)): 7.36%
YFP fluorescence quenching (percent quench) (1 mM ach (acetylcholine)): 57.28%
YFP fluorescence quenching (percent quench) (3 mM ach (acetylcholine)): 60.54%
YFP fluorescence quenching (percent quench) (10 mM ach (acetylcholine)): 79.46%
YFP fluorescence quenching using Varenicline, 3 nM var (first column): 74.835
YFP fluorescence quenching using Varenicline, 3 nM var (second column): 76.119
YFP fluorescence quenching using Varenicline, 30 nM var (first column): 77.608
YFP fluorescence quenching using Varenicline, 30 nM var (second column): 79.015
YFP fluorescence quenching using Varenicline, 300 nM var (first column): 80.71
YFP fluorescence quenching using Varenicline, 300 nM var (second column): 79.002
YFP fluorescence quenching using Varenicline, 500 nM var (first column): 78.709
YFP fluorescence quenching using Varenicline, 500 nM var (second column): 78.884
YFP fluorescence quenching using Varenicline, 1 uM var (first column): 79.688
YFP fluorescence quenching using Varenicline, 1 uM var (second column): 80
